Columns and labels:
[1] = molecular target: T1, LILRB2 (UniProt Q8N423 22-460, limits assumed); assay: ELISA of phage display clone on LILRB2
T1 construct: Panning used recombinantly expressed LILRB2-His; also called Leukocyte Immunoglobulin-like Receptor subfamily B member 2; LILRB2-His

[2] = molecular target: T1, LILRB2; assay: BLI, Octet Red96
Procedure: Kinetic binding parameters (KD, kₒₙ, and koff) were determined using Octet Red96 instrument (ForteBio; Fremont, CA).

[3] = molecular target: T2, LILRB2-chimeric reporter receptor on reporter cells (UniProt Q8N423 22-460); assay: cell-based or functional assay
[4] = molecular target: T2, LILRB2-chimeric reporter receptor on …; assay: cell-based or functional assay; remark: listed apart in the source
[5] = molecular target: T3, recombinantly produced LILRB2 extracellular domain (ECD) protein (UniProt Q8N423 22-460, limits assumed); assay: ELISA, plate-coated LILRB2, anti-human F(ab)2 HRP detection
T3 construct: extracellular domain; A LILRB2-His protein was used for panning; also called plate-coated LILRB2; LILRB2 ECD
Procedure: Antibody binding affinity to LILRB2 were measured by ELISA. Increasing concentrations of purified LILRB2 antibodies were incubated with plate-coated LILRB2. The bound antibody was detected by anti-human F(ab)2 HRP, and the signals were quantified as OD₄₅₀ values. EC₅₀ values (Table 5) were calculated using non-linear curve fitting function Sigmoidal dose-response (variable slope) in GraphPad Prism.

[6] = molecular target: T4, LILRB2 expressed on the surface of HEK293T cells (UniProt Q8N423 22-597, limits assumed); assay: flow cytometry on HEK293T cells expressing LILRB2, MFI fold over control; sheet also prints 95%CI=0.19-0.31 µg/mL
T4 construct: whole, on cells; also called HEK293T cells that express LILRB2
T4 sequence (Q8N423 22-597 limits assumed): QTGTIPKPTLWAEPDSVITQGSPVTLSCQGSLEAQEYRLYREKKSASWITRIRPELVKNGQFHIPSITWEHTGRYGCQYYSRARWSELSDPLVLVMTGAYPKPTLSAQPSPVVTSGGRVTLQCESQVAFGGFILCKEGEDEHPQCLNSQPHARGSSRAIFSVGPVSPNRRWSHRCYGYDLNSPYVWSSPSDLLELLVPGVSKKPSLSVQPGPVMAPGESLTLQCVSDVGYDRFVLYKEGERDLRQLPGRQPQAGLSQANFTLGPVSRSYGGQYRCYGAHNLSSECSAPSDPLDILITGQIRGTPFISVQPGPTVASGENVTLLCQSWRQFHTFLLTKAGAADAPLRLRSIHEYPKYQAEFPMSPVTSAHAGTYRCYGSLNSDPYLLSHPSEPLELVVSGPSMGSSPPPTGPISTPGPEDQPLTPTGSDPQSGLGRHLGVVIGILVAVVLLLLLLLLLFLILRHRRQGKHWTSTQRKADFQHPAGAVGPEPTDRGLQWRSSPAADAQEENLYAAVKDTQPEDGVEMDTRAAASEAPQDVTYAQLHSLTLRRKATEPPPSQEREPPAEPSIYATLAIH

T3 sequence (Q8N423 22-460 limits assumed): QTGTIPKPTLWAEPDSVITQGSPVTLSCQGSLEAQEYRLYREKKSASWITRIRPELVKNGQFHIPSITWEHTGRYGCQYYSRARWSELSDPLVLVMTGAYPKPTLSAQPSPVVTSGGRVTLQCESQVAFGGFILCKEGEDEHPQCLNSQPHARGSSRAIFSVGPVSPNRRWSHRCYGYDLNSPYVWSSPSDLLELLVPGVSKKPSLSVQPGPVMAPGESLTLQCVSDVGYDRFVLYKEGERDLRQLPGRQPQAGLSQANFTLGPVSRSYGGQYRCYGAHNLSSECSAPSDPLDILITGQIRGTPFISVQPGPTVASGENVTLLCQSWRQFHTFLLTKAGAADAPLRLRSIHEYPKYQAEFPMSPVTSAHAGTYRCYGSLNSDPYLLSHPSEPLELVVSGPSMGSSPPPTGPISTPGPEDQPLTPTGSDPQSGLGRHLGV
T1 sequence (Q8N423 22-460 limits assumed): as above
T2 sequence (Q8N423 22-460, change not shown): as the sequence (Q8N423 22-460 limits assumed) above

Row | Binder | OD450 in ELISA assay [1] | Kd [2] [pM] | koff [2] [s⁻¹] | kon [2] [M⁻¹ s⁻¹] | IC50 (M); GFP signal of LILRB2-chimeric reporter cells on plate-coated oAβ [3] [M] | IC50 (M); blocking of PS-LILRB2 interaction [4] [M] | EC50 [5] [pM] | EC50 [6] [µg/mL]
1 | NeuB2-13 (antibody, V domains shown, Human antibody from a phage library; also called 13-HC/13-LC) VH: QVQLVQSGAEVKKPGASVKVSCKASGYTFTSYYMHWVRQAPGQGLEWMGIINPSGGSTSYAQKFQGRVTMTRDTSTSTVYMELSSLRSEDTAVYYCAREDWGPFDYWGQGTTVTVSS VL: DIQMTQSPSSLSASVGDRVTITCRASQSISNFVNWYQQKPGEVPKLLIYGASSLQSGVPSRFSGSGSGTDFTLTISSLQPEDFATYYCQQGYSVPLTFGGGTKVEIK | 0.552 | – | – | – | – | – | – | –
2 | NeuB2-8 (antibody, V domains shown, Human antibody from a phage library; also called 8-HC/8-LC) VH: QLQLQESGPGLVKPSQTLSLTCAISGGNVSSKSAAWNWIRQSPSRGLEWLGRTYYRSKWYNDYAVSVKSRITINPDTSKNQFSLQLKSVTPEDTAVYYCARSLGEGWFPYFYGMDVWGQGTTVTVSS VL: QSVLTQPASVSGSPGQSITISCTGTNRDVGGYDYVSWYQQHPGKAPKLMIYGVSNRPSGISNRFSGSKSGSTASLTISGLQVEDEAAYYCSSYTASRTVVFGGGTKVTVL | 0.548 | – | – | – | – | – | – | –
3 | NeuB2-128 (antibody, V domains shown, Human antibody from a phage library; also called 128-HC/128-LC) VH: QVQLQQSGAEVKKPGSSVKVSCKASGGTFSSYAISWVRQAPGQGLEWMGGIIPIFGTANYTQKFQGRVTITADESTSTAYMELSSLRSEDTAVYYCARGPSGSPYGMDVWGQGTTVIVSS VL: not shown | 0.446 | – | – | – | – | – | – | –
4 | NeuB2-80 (antibody, V domains shown, Human antibody from a phage library; also called 80-HC/80-LC) VH: QVQLVQSGAEVKKPGASVKVSCKASGYTFTSYGISWVRQAPGQGLEWMGWISAYNGNTNYAQKLQGRVTMTTDTSTSTAYMELRSLRSDDTAVYYCARDGGGGYFDYWGQGTLVTVSS VL: QAVVTQPPSASGTPGQRITISCSGSSSNIGKNIVNWYQQVPGAAPKLLIYNNSQRPSGVPDRFSGSKSGTSASLAISGLQSEDEADYYCAAWDDSLRSWLFGGGTKVTVL | 0.64 | – | – | – | – | – | – | –
5 | NeuB2-60 (antibody, V domains shown, also called Ab60; 60-HC/60-LC) VH: QVQLQESGPGLVKPSGTLSLTCAVSGGSITSSNWWSWVRQPPGKGLEWIGDISHSGSTNYNPSLKGRVTMSVDRSKNQFFLKLSSVTAADTAMYYCARAFHGMDVWGQGTTVTVSS VL: QSVLTQPPSVSEAPRQRVTISCSGSSSNIANNAVNWYQQLPGKAPKLLIYYDDLLASGVSDRFSGSRSGTSAALAISGLQSEDEADYYCATWDDDLNGPIFGGGTKVTVL | 0.744 | 24100 | 0.00512 | 212000 | 9.82e-10 | 3.21e-10 | 161 | –
6 | NeuB2-37 (antibody, V domains shown, also called Ab37; 37-HC/37-LC) VH: QVQLMQSGAEVKKPGSSVKVSCKASGGTFSSYAISWVRQAPGQGLEWMGGIIPIFGTANYAQKFQGRVTITADESTSTAYMELSSLRSEDTAVYYCARGNHVLRFLEWLPNWFDPWGQGTLVTVSS VL: not shown | 0.417 | 8450 | 0.0004 | 47400 | 8.62e-10 | 2.93e-10 | 658 | –
7 | NeuB2-19 (antibody, V domains shown, Human antibody from a phage library; also called 19-HC/19-LC) VH: QVQLVESGGGVVRPGGSLRLSCAASGFTFDDYGMSWVRQAPGKGLEWVSGINWNGGSTGYADSVKGRFTISRDNAKNSLYLQMNSLRAEDTALYYCAREGDGAFDIWGQGTLVTVSS VL: QAVVTQPPSASGTPGQRVTISCSGSGSNIRSNGVTWYQQFPGTAPKLLIYDNNQRPSGVPGRFSGSKSGTSGSLAISGLQSEDEADYYCAAWDDNLNAWVFGAGTQLTVL | 0.663 | – | – | – | – | – | – | –
8 | NeuB2-55 (antibody, V domains shown, also called Ab55; 55-HC/55-LC) VH: EVQLVQSGAEVKKPGSSVKVSCKASGGTFSSYAISWVRQAPGQGLEWMGGIIPIFGTANYAQKFQGRVTITADESTSTAYMELSSLRSEDTAVYYCARGVDQVDYWGQGTLVTVSS VL: QAVVTQPASVSGSPGQSITISCTGTSSDVGGYNYVSWYQQHPGKAPKLMIYDVSNRPSGVSNRFSGSKSGNTASLTISGLQAEDEADYYCSSYTSSSTPYVFGTGTKVTVL | 0.886 | 56000 | 0.00723 | 129000 | 1.89e-09 | 3.35e-10 | 175 | –
9 | NeuB2-93 (antibody, V domains shown, also called Ab93; 93-HC/93-LC) VH: QVQLMQSGAEVKKPGSSVKVSCKASGGRFSSNVMSWVRQAPGQGLEWMGGIIPIFGTPKYAQKFQGRVTITADKSTSTAYMELSSLRSEDTAVYYCASGSTPFDAFDIWGQGTMVTVSS VL: QPVLTQPASVSGSPGQSITISCTGTSSDVGGYNYVSWYQQHPGKAPKLMIYEVSNRPSGVSNRFSGSKSGNTASLTISGLQAEDEADYYCSSYTSSSTPWVFGGGTKVTVL | 0.543 | 83900 | 0.0103 | 123000 | 3.81e-09 | 4.45e-10 | 159 | –
10 | NeuB2-110 (antibody, V domains shown, Human antibody from a phage library; also called 110-HC/110-LC) VH: QVQLVESGGGLVKPGGSLRLSCGISGFTFSDYYMSWIRQAPGKGLEWVSFIGTSGSTIYYADSVKGRFTISRDNANNSLFLQMNSLTVEDTAVYYCAREATSGTYFDYWGQGTLVSVSS VL: QAVVTQPASVSGSPGQSITISCTGTSSDVGGYNYVSWYQQHPGKAPKLMIYEVTNRPSGVSNRFSGSKSGNTASLTISGLQAEDEADYYCSSYTSSSTPYVFGTGTKVTVL | 0.972 | – | – | – | – | – | – | –
11 | NeuB2-9 (antibody, V domains shown, Human antibody from a phage library; also called 9-HC/9-LC) VH: QVQLVQSGAEVKKPGASVKVSCKASGYTFTSYAMHWVRQAPGQRLEWMGWINAGNGNTKYSQKFQGRVTITRDTSASTAYMELSSLRSEDTAVYYCARDFMGYCSSTSCYGVTGAFDIWGQGTMVTVSS VL: not shown | 0.515 | – | – | – | – | – | – | –
12 | NeuB2-40 (antibody, V domains shown, also called Ab40; 40-HC/40-LC) VH: QVQLVQSGAEVKKPGASVKVSCKASGYTFTNYGISWVRQAPGQGLEWMGWISGDAGDTKFAQKFQGRVTMTTDTSTTTTYMELRSLRSDDTAVYYCARDGEYIPMFRGFDNYYGLDVWGQGTTVTVSS VL: QPVLTQPPSVSEAPRQRVTISCSGSSSNIGKNAVNWYQQFPGKAPKLLIYYDDLLPSGVSDRFSGSRSGTSASLAISGLQSEDEADYYCAAWDDRLKGYVFGTGTQLTVL | 0.276 | 19200 | 0.00471 | 245000 | 3.6e-09 | 3.54e-10 | 66.4 | –
13 | NeuB2-29 (antibody, V domains shown, also called Ab29; NewuB2-29) VH: QVQLVETGGGVVQPGRSLRLSCAASGFTFSDYAMHWVRQAPGKGLEWVTLISYDGSQKYYADSVKGRFTISRDDSKNTVDLQMNSLKAEDTAVYYCAKFPSLNDNVGFDVWGQGTMVTVSS VL: QSVLTQPPSVSGAPRERVTISCSGSTSNIENNAVNWYQQLPGKAPKLLIYYDDLVPSGVSDRFSGSKSGTSASLAISGLQSGDEAYYYCAVWDDSLNGPVFGGGTKVTVL | 0.819 | 9000 | 0.00151 | 168000 | 3.44e-10 | 1.42e-10 | 137 | 0.24
